Reference: publication PMC3064667

Target: T1, human IL-10 receptor (human) (UniProt Q13651)
T1 sequence 1: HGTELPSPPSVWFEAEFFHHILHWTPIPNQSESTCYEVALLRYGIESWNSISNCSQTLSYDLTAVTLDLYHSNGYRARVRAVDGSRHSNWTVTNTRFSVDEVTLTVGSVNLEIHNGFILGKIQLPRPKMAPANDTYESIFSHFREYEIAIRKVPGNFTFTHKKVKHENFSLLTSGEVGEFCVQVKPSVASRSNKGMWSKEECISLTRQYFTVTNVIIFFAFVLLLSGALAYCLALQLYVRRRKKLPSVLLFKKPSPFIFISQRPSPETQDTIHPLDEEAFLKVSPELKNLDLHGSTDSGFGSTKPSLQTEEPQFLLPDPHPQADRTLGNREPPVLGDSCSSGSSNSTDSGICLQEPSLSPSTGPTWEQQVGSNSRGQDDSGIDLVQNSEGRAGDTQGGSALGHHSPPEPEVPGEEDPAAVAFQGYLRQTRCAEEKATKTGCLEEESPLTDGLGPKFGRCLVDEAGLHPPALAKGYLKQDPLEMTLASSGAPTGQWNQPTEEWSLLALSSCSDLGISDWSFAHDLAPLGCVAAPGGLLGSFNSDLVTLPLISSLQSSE
T1 sequence 2: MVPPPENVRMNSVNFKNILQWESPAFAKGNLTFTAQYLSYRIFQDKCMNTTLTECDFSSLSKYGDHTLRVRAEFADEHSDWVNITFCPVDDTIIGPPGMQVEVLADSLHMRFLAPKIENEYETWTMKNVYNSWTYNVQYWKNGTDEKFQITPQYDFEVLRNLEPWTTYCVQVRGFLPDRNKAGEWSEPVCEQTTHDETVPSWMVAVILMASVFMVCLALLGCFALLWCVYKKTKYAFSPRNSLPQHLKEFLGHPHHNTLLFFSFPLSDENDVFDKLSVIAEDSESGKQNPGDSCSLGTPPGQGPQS

Chain of recombinant bovine IL-10 (P43480 19-178): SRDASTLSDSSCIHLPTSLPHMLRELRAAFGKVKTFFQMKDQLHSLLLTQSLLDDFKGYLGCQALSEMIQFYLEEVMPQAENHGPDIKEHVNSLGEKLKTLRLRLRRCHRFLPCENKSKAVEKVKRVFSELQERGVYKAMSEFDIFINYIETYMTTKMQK

“recombinant bovine IL-10 (from UniProt P43480 19-178) (ligand)” was tested, and the CD83 expression by LPS stimulated DCs, average percentage compared to cells only stimulated with LPS; bovine IL-10 0.25-20 ng/ml (130.5 at 0.25 ng/ml falling to 38.2 at 20 ng/ml) (% of cells only stimulated with LPS) was 130, the CD86 expression by LPS stimulated DCs, average percentage compared to cells only stimulated with LPS; bovine IL-10 0.25-20 ng/ml (106.3 at 0.25 ng/ml falling to 51.0 at 20 ng/ml) (% of cells only stimulated with LPS) was 106 and the IL-1β production by LPS stimulated monocytes with 10 ng/ml bovine IL-10, average percentage compared to cells only stimulated with LPS (% of cells only stimulated with LPS) was 30.3. For the same substance, the IL-12 production by LPS stimulated DCs, average percentage compared to cells only stimulated with LPS; bovine IL-10 0.25-20 ng/ml (102.9 at 0.25 ng/ml falling to 1.5 at 20 ng/ml) (% of cells only stimulated with LPS) was 103, the TNF-α production by LPS stimulated DCs, average percentage compared to cells only stimulated with LPS; bovine IL-10 0.25-20 ng/ml (143.9 at 0.25 ng/ml falling to 0.9 at 20 ng/ml) (% of cells only stimulated with LPS) was 144 and the TNF-α production by LPS stimulated monocytes with 10 ng/ml bovine IL-10, average percentage compared to cells only stimulated with LPS (% of cells only stimulated with LPS) was 14.2.
